Measured values from the supplement of paper PMC9112550, “Optimization of the antimicrobial peptide Bac7 by deep mutational scanning” (BMC Biology, 2022).

Tested on: Escherichia coli TOP10
Test: shrunken log2 fold change of peptide-encoding DNA abundance (4.5 h post-induction vs induction); higher = less antimicrobial activity (less host growth inhibition)
Settings: time post-induction: 4.5 h; library: site-saturation at positions 5, 18, 19, 20
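Further: peptides expressed intracellularly from a pBAD plasmid library in pooled LB shake-flask culture, induced with 0.3% L-arabinose, DNA abundance read by NGS, three biological replicates, DESeq2 with apeglm shrinkage.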

Row | Sequence | shrunken log2 fold change
1 | RRIRDRPPRLPRPRPRPVQPPRP | 0.196
2 | RRIRDRPPRLPRPRPRPVSQPRP | -0.0185
3 | RRIRDRPPRLPRPRPRPVTPPRP | 0.214
4 | RRIRDRPPRLPRPRPRPVVRPRP | 0.155
5 | RRIRDRPPRLPRPRPRPVWFPRP | 1.26
6 | RRIRDRPPRLPRPRPRPVWKPRP | -0.0168
7 | RRIRDRPPRLPRPRPRPVYKPRP | -0.601
8 | RRIRDRPPRLPRPRPRPWAGPRP | 0.0503
9 | RRIRDRPPRLPRPRPRPWAKPRP | -0.0135
10 | RRIRDRPPRLPRPRPRPWDNPRP | -0.00183
11 | RRIRDRPPRLPRPRPRPWFWPRP | -0.0329
12 | RRIRDRPPRLPRPRPRPWGDPRP | 0.13
13 | RRIRDRPPRLPRPRPRPWGGPRP | 0.422
14 | RRIRDRPPRLPRPRPRPWIEPRP | 0.135
15 | RRIRDRPPRLPRPRPRPWIPPRP | -0.0565
16 | RRIRDRPPRLPRPRPRPWLTPRP | -0.0223
17 | RRIRDRPPRLPRPRPRPWLYPRP | -0.68
18 | RRIRDRPPRLPRPRPRPWMFPRP | -0.0535
19 | RRIRDRPPRLPRPRPRPWNPPRP | -0.586
20 | RRIRDRPPRLPRPRPRPWPGPRP | 0.104
21 | RRIRDRPPRLPRPRPRPWPRPRP | 0.211
22 | RRIRDRPPRLPRPRPRPWPWPRP | -0.0837
23 | RRIRDRPPRLPRPRPRPWPYPRP | -0.0943
24 | RRIRDRPPRLPRPRPRPWSAPRP | -0.347
25 | RRIRDRPPRLPRPRPRPWTYPRP | -0.834

Row | Sequence | shrunken log2 fold change
26 | RRIRDRPPRLPRPRPRPWVEPRP | 0.105
27 | RRIRDRPPRLPRPRPRPWVMPRP | -0.167
28 | RRIRDRPPRLPRPRPRPWWCPRP | -0.00632
29 | RRIRDRPPRLPRPRPRPWWMPRP | 0.0169
30 | RRIRDRPPRLPRPRPRPWYVPRP | -0.726
31 | RRIRDRPPRLPRPRPRPYACPRP | 0.0334
32 | RRIRDRPPRLPRPRPRPYAHPRP | -0.31
33 | RRIRDRPPRLPRPRPRPYCMPRP | -0.28
34 | RRIRDRPPRLPRPRPRPYCRPRP | 0.0533
35 | RRIRDRPPRLPRPRPRPYDAPRP | -0.00235
36 | RRIRDRPPRLPRPRPRPYDPPRP | 0.0101
37 | RRIRDRPPRLPRPRPRPYHFPRP | -0.277
38 | RRIRDRPPRLPRPRPRPYHIPRP | -0.107
39 | RRIRDRPPRLPRPRPRPYHWPRP | 0.0299
40 | RRIRDRPPRLPRPRPRPYLLPRP | -0.179
41 | RRIRDRPPRLPRPRPRPYLQPRP | -0.0926
42 | RRIRDRPPRLPRPRPRPYMRPRP | -0.0888
43 | RRIRDRPPRLPRPRPRPYPCPRP | -0.112
44 | RRIRDRPPRLPRPRPRPYPGPRP | -0.0524
45 | RRIRDRPPRLPRPRPRPYPLPRP | 0.215
46 | RRIRDRPPRLPRPRPRPYQVPRP | -0.183
47 | RRIRDRPPRLPRPRPRPYRAPRP | -0.118
48 | RRIRDRPPRLPRPRPRPYRVPRP | -0.0135
49 | RRIRDRPPRLPRPRPRPYTSPRP | 0.0448
50 | RRIRDRPPRLPRPRPRPYVEPRP | -0.125

Row | Sequence | shrunken log2 fold change
51 | RRIRDRPPRLPRPRPRPYVWPRP | -0.579
52 | RRIRDRPPRLPRPRPRPYYAPRP | -0.201
53 | RRIRDRPPRLPRPRPRPYYFPRP | -0.209
54 | RRIRERPPRLPRPRPRPAARPRP | 0.226
55 | RRIRERPPRLPRPRPRPACDPRP | 0.0619
56 | RRIRERPPRLPRPRPRPACWPRP | 0.715
57 | RRIRERPPRLPRPRPRPADCPRP | 0.0519
58 | RRIRERPPRLPRPRPRPADDPRP | 0.000221
59 | RRIRERPPRLPRPRPRPADMPRP | -0.0494
60 | RRIRERPPRLPRPRPRPADQPRP | 0.0155
61 | RRIRERPPRLPRPRPRPADRPRP | -0.173
62 | RRIRERPPRLPRPRPRPAFDPRP | 0.107
63 | RRIRERPPRLPRPRPRPAFWPRP | 0.632
64 | RRIRERPPRLPRPRPRPAGFPRP | 0.67
65 | RRIRERPPRLPRPRPRPAHMPRP | -0.291
66 | RRIRERPPRLPRPRPRPAHTPRP | -0.0788
67 | RRIRERPPRLPRPRPRPAHYPRP | -0.148
68 | RRIRERPPRLPRPRPRPAIMPRP | -0.299
69 | RRIRERPPRLPRPRPRPAIYPRP | -0.051
70 | RRIRERPPRLPRPRPRPAKLPRP | -0.0209
71 | RRIRERPPRLPRPRPRPAKRPRP | 0.0249
72 | RRIRERPPRLPRPRPRPAMRPRP | 0.59
73 | RRIRERPPRLPRPRPRPAPFPRP | -0.244
74 | RRIRERPPRLPRPRPRPAPMPRP | 0.116
75 | RRIRERPPRLPRPRPRPARAPRP | 0.522

Row | Sequence | shrunken log2 fold change
76 | RRIRERPPRLPRPRPRPARVPRP | -0.505
77 | RRIRERPPRLPRPRPRPAVPPRP | 0.0842
78 | RRIRERPPRLPRPRPRPAVTPRP | -0.13
79 | RRIRERPPRLPRPRPRPAVVPRP | -0.171
80 | RRIRERPPRLPRPRPRPAWGPRP | -0.00226
81 | RRIRERPPRLPRPRPRPAWKPRP | -0.0447
82 | RRIRERPPRLPRPRPRPAWVPRP | 0.174
83 | RRIRERPPRLPRPRPRPAYWPRP | 0.000956
84 | RRIRERPPRLPRPRPRPCAEPRP | -0.0868
85 | RRIRERPPRLPRPRPRPCAKPRP | 0.00616
86 | RRIRERPPRLPRPRPRPCCGPRP | -0.18
87 | RRIRERPPRLPRPRPRPCCPPRP | -0.159
88 | RRIRERPPRLPRPRPRPCCQPRP | -0.485
89 | RRIRERPPRLPRPRPRPCDFPRP | -0.502
90 | RRIRERPPRLPRPRPRPCDLPRP | -0.01
91 | RRIRERPPRLPRPRPRPCDMPRP | -0.0119
92 | RRIRERPPRLPRPRPRPCFKPRP | -0.0311
93 | RRIRERPPRLPRPRPRPCFRPRP | -0.511
94 | RRIRERPPRLPRPRPRPCFSPRP | -0.0538
95 | RRIRERPPRLPRPRPRPCHTPRP | -0.0292
96 | RRIRERPPRLPRPRPRPCICPRP | -0.0733
97 | RRIRERPPRLPRPRPRPCIRPRP | -0.152
98 | RRIRERPPRLPRPRPRPCIVPRP | -0.427
99 | RRIRERPPRLPRPRPRPCKDPRP | -0.117
100 | RRIRERPPRLPRPRPRPCKMPRP | -0.427

Row | Sequence | shrunken log2 fold change
101 | RRIRERPPRLPRPRPRPCNHPRP | -0.567
102 | RRIRERPPRLPRPRPRPCQLPRP | -0.265
103 | RRIRERPPRLPRPRPRPCQNPRP | -0.0177
104 | RRIRERPPRLPRPRPRPCSVPRP | -0.0625
105 | RRIRERPPRLPRPRPRPCVLPRP | 0.0248
106 | RRIRERPPRLPRPRPRPCVSPRP | -0.0843
107 | RRIRERPPRLPRPRPRPCWLPRP | -0.0175
108 | RRIRERPPRLPRPRPRPCWMPRP | -0.239
109 | RRIRERPPRLPRPRPRPCWRPRP | 0.27
110 | RRIRERPPRLPRPRPRPDAIPRP | -0.166
111 | RRIRERPPRLPRPRPRPDCDPRP | -0.121
112 | RRIRERPPRLPRPRPRPDCGPRP | 0.0191
113 | RRIRERPPRLPRPRPRPDCLPRP | -0.428
114 | RRIRERPPRLPRPRPRPDCPPRP | -0.559
115 | RRIRERPPRLPRPRPRPDDCPRP | -0.0573
116 | RRIRERPPRLPRPRPRPDDKPRP | -0.433
117 | RRIRERPPRLPRPRPRPDEHPRP | -0.274
118 | RRIRERPPRLPRPRPRPDEVPRP | 0.0489
119 | RRIRERPPRLPRPRPRPDEWPRP | -0.215
120 | RRIRERPPRLPRPRPRPDFRPRP | -0.0858
121 | RRIRERPPRLPRPRPRPDGTPRP | 0.0123
122 | RRIRERPPRLPRPRPRPDHQPRP | -0.223
123 | RRIRERPPRLPRPRPRPDIEPRP | -0.0223
124 | RRIRERPPRLPRPRPRPDIIPRP | 0.0463
125 | RRIRERPPRLPRPRPRPDIPPRP | -0.366

Row | Sequence | shrunken log2 fold change
126 | RRIRERPPRLPRPRPRPDKEPRP | -0.0205
127 | RRIRERPPRLPRPRPRPDKHPRP | 0.236
128 | RRIRERPPRLPRPRPRPDLEPRP | -0.0701
129 | RRIRERPPRLPRPRPRPDLIPRP | -0.0979
130 | RRIRERPPRLPRPRPRPDMGPRP | -0.265
131 | RRIRERPPRLPRPRPRPDNHPRP | -0.802
132 | RRIRERPPRLPRPRPRPDNTPRP | -0.489
133 | RRIRERPPRLPRPRPRPDPEPRP | -0.159
134 | RRIRERPPRLPRPRPRPDQCPRP | -0.308
135 | RRIRERPPRLPRPRPRPDRDPRP | -0.0369
136 | RRIRERPPRLPRPRPRPDRNPRP | -0.25
137 | RRIRERPPRLPRPRPRPDTLPRP | -0.00753
138 | RRIRERPPRLPRPRPRPDTRPRP | 0.0127
139 | RRIRERPPRLPRPRPRPDVDPRP | 0.0225
140 | RRIRERPPRLPRPRPRPDVFPRP | -0.0359
141 | RRIRERPPRLPRPRPRPDVIPRP | -0.502
142 | RRIRERPPRLPRPRPRPDYPPRP | 0.00237
143 | RRIRERPPRLPRPRPRPEDWPRP | 0.351
144 | RRIRERPPRLPRPRPRPEFIPRP | -0.335
145 | RRIRERPPRLPRPRPRPEIAPRP | -0.0389
146 | RRIRERPPRLPRPRPRPEICPRP | 0.162
147 | RRIRERPPRLPRPRPRPEIEPRP | 0.0286
148 | RRIRERPPRLPRPRPRPELLPRP | -0.000642
149 | RRIRERPPRLPRPRPRPEMPPRP | 0.112
150 | RRIRERPPRLPRPRPRPENGPRP | -0.025
